{
  "source": "paper PMC8763920",
  "about": "“Unprotected peptide macrocyclization and stapling via a fluorine-thiol displacement reaction” (Nature Communications, 2022)",
  "note": "*1 amine or outer side, *2 acyl side, *3 side chain or, on linkers, in order; H or OH if unused. Where a SMILES comes first, the peptide text is derived from it. Bridges are numbered along the chain shown (N, C = ends). [ ]: non-standard residue; d: D form. X3 = O=C(CSCCCCCCCCSCC(=O)[*:2])[*:1]; X2 = O=C(CSCCCCCCCSCC(=O)[*:2])[*:1]; X1 = O=C(CSCCCCCCSCC(=O)[*:2])[*:1]; X4 = O=C(CSCCCCCSCC(=O)[*:2])[*:1]; S5 = C=CCCC[C@](C)(N)C(=O)O; dDap = NC[C@@H](N)C(=O)O; Dap = NC[C@H](N)C(=O)O",
  "data": [
    {"assay": "circular dichroism", "settings": "water; pH ns; 25 °C; 70 uM", "units": {"helicity": "%"}, "values": [
      {"smiles": "CC[C@H](C)[C@@H]1NC(=O)[C@@H](NC(=O)[C@H](CCC(=O)O)NC(=O)[C@@H]2CCCN2C(=O)[C@H](CC(N)=O)NC(=O)[C@H](CCC(=O)O)NC(C)=O)CNC(=O)CSCCCCCCCSCC(=O)NC[C@@H](C(=O)N[C@@H](Cc2c[nH]cn2)C(=O)N[C@H](C(=O)N[C@@H](CCC(N)=O)C(=O)N[C@@H](CCCNC(=N)N)C(=O)N[C@H](C(=O)N[C@@H](CCSC)C(N)=O)C(C)C)C(C)C)NC(=O)[C@H](CC(=O)O)NC(=O)[C@H](CC(C)C)NC1=O", "note": "(Ac-ENPE[Dap]ILD[Dap]HVQRVM-NH2; linker 5-9 via X2)", "helicity": 18},
      {"smiles": "CC[C@H](C)[C@@H]1NC(=O)[C@@H](NC(=O)[C@H](CCC(=O)O)NC(=O)[C@@H]2CCCN2C(=O)[C@H](CC(N)=O)NC(=O)[C@H](CCC(=O)O)NC(C)=O)CNC(=O)CSCCCCCCCCSCC(=O)NC[C@@H](C(=O)N[C@@H](Cc2c[nH]cn2)C(=O)N[C@H](C(=O)N[C@@H](CCC(N)=O)C(=O)N[C@@H](CCCNC(=N)N)C(=O)N[C@H](C(=O)N[C@@H](CCSC)C(N)=O)C(C)C)C(C)C)NC(=O)[C@H](CC(=O)O)NC(=O)[C@H](CC(C)C)NC1=O", "note": "(Ac-ENPE[Dap]ILD[Dap]HVQRVM-NH2; linker 5-9 via X3)", "helicity": 25},
      {"smiles": "CC[C@H](C)[C@@H]1NC(=O)[C@@H](NC(=O)[C@H](CCC(=O)O)NC(=O)[C@@H]2CCCN2C(=O)[C@H](CC(N)=O)NC(=O)[C@H](CCC(=O)O)NC(C)=O)CNC(=O)CSCCCCCSCC(=O)NC[C@@H](C(=O)N[C@@H](Cc2c[nH]cn2)C(=O)N[C@H](C(=O)N[C@@H](CCC(N)=O)C(=O)N[C@@H](CCCNC(=N)N)C(=O)N[C@H](C(=O)N[C@@H](CCSC)C(N)=O)C(C)C)C(C)C)NC(=O)[C@H](CC(=O)O)NC(=O)[C@H](CC(C)C)NC1=O", "note": "(Ac-ENPE[Dap]ILD[Dap]HVQRVM-NH2; linker 5-9 via X4)", "helicity": 24},
      {"smiles": "CC[C@H](C)[C@@H]1NC(=O)[C@@H](NC(=O)[C@H](CCC(=O)O)NC(=O)[C@@H]2CCCN2C(=O)[C@H](CC(N)=O)NC(=O)[C@H](CCC(=O)O)NC(C)=O)CNC(=O)CSCCCCCCCSCC(=O)NC[C@H](C(=O)N[C@@H](Cc2c[nH]cn2)C(=O)N[C@H](C(=O)N[C@@H](CCC(N)=O)C(=O)N[C@@H](CCCNC(=N)N)C(=O)N[C@H](C(=O)N[C@@H](CCSC)C(N)=O)C(C)C)C(C)C)NC(=O)[C@H](CC(=O)O)NC(=O)[C@H](CC(C)C)NC1=O", "note": "(Ac-ENPE[Dap]ILD[dDap]HVQRVM-NH2; linker 5-9 via X2)", "helicity": 25},
      {"smiles": "CC[C@H](C)[C@@H]1NC(=O)[C@@H](NC(=O)[C@H](CCC(=O)O)NC(=O)[C@@H]2CCCN2C(=O)[C@H](CC(N)=O)NC(=O)[C@H](CCC(=O)O)NC(C)=O)CNC(=O)CSCCCCCCCCSCC(=O)NC[C@H](C(=O)N[C@@H](Cc2c[nH]cn2)C(=O)N[C@H](C(=O)N[C@@H](CCC(N)=O)C(=O)N[C@@H](CCCNC(=N)N)C(=O)N[C@H](C(=O)N[C@@H](CCSC)C(N)=O)C(C)C)C(C)C)NC(=O)[C@H](CC(=O)O)NC(=O)[C@H](CC(C)C)NC1=O", "note": "(Ac-ENPE[Dap]ILD[dDap]HVQRVM-NH2; linker 5-9 via X3)", "helicity": 14},
      {"smiles": "CC[C@H](C)[C@@H]1NC(=O)[C@@](C)(NC(=O)[C@H](CCC(=O)O)NC(=O)[C@@H]2CCCN2C(=O)[C@H](CC(N)=O)NC(=O)[C@H](CCC(=O)O)NC(C)=O)CCCC=CCCC[C@@](C)(C(=O)N[C@@H](Cc2c[nH]cn2)C(=O)N[C@H](C(=O)N[C@@H](CCC(N)=O)C(=O)N[C@@H](CCCNC(=N)N)C(=O)N[C@H](C(=O)N[C@@H](CCSC)C(N)=O)C(C)C)C(C)C)NC(=O)[C@H](CC(=O)O)NC(=O)[C@H](CC(C)C)NC1=O", "note": "(Ac-ENPE[S5]ILD[S5]HVQRVM-NH2; staple 5-9)", "helicity": 48},
      {"smiles": "CC[C@H](C)[C@@H]1NC(=O)[C@H](NC(=O)[C@H](CCC(=O)O)NC(=O)[C@@H]2CCCN2C(=O)[C@H](CC(N)=O)NC(=O)[C@H](CCC(=O)O)NC(C)=O)CNC(=O)CSCCCCCCCSCC(=O)NC[C@@H](C(=O)N[C@@H](Cc2c[nH]cn2)C(=O)N[C@H](C(=O)N[C@@H](CCC(N)=O)C(=O)N[C@@H](CCCNC(=N)N)C(=O)N[C@H](C(=O)N[C@@H](CCSC)C(N)=O)C(C)C)C(C)C)NC(=O)[C@H](CC(=O)O)NC(=O)[C@H](CC(C)C)NC1=O", "note": "(Ac-ENPE[dDap]ILD[Dap]HVQRVM-NH2; linker 5-9 via X2)", "helicity": 19},
      {"smiles": "CC[C@H](C)[C@@H]1NC(=O)[C@H](NC(=O)[C@H](CCC(=O)O)NC(=O)[C@@H]2CCCN2C(=O)[C@H](CC(N)=O)NC(=O)[C@H](CCC(=O)O)NC(C)=O)CNC(=O)CSCCCCCCCCSCC(=O)NC[C@@H](C(=O)N[C@@H](Cc2c[nH]cn2)C(=O)N[C@H](C(=O)N[C@@H](CCC(N)=O)C(=O)N[C@@H](CCCNC(=N)N)C(=O)N[C@H](C(=O)N[C@@H](CCSC)C(N)=O)C(C)C)C(C)C)NC(=O)[C@H](CC(=O)O)NC(=O)[C@H](CC(C)C)NC1=O", "note": "(Ac-ENPE[dDap]ILD[Dap]HVQRVM-NH2; linker 5-9 via X3)", "helicity": 5},
      {"smiles": "CC[C@H](C)[C@@H]1NC(=O)[C@H](NC(=O)[C@H](CCC(=O)O)NC(=O)[C@@H]2CCCN2C(=O)[C@H](CC(N)=O)NC(=O)[C@H](CCC(=O)O)NC(C)=O)CNC(=O)CSCCCCCCSCC(=O)NC[C@H](C(=O)N[C@@H](Cc2c[nH]cn2)C(=O)N[C@H](C(=O)N[C@@H](CCC(N)=O)C(=O)N[C@@H](CCCNC(=N)N)C(=O)N[C@H](C(=O)N[C@@H](CCSC)C(N)=O)C(C)C)C(C)C)NC(=O)[C@H](CC(=O)O)NC(=O)[C@H](CC(C)C)NC1=O", "note": "(Ac-ENPE[dDap]ILD[dDap]HVQRVM-NH2; linker 5-9 via X1)", "helicity": 28},
      {"smiles": "CC[C@H](C)[C@@H]1NC(=O)[C@H](NC(=O)[C@H](CCC(=O)O)NC(=O)[C@@H]2CCCN2C(=O)[C@H](CC(N)=O)NC(=O)[C@H](CCC(=O)O)NC(C)=O)CNC(=O)CSCCCCCCCSCC(=O)NC[C@H](C(=O)N[C@@H](Cc2c[nH]cn2)C(=O)N[C@H](C(=O)N[C@@H](CCC(N)=O)C(=O)N[C@@H](CCCNC(=N)N)C(=O)N[C@H](C(=O)N[C@@H](CCSC)C(N)=O)C(C)C)C(C)C)NC(=O)[C@H](CC(=O)O)NC(=O)[C@H](CC(C)C)NC1=O", "note": "(Ac-ENPE[dDap]ILD[dDap]HVQRVM-NH2; linker 5-9 via X2)", "helicity": 31},
      {"smiles": "CC[C@H](C)[C@@H]1NC(=O)[C@H](NC(=O)[C@H](CCC(=O)O)NC(=O)[C@@H]2CCCN2C(=O)[C@H](CC(N)=O)NC(=O)[C@H](CCC(=O)O)NC(C)=O)CNC(=O)CSCCCCCCCCSCC(=O)NC[C@H](C(=O)N[C@@H](Cc2c[nH]cn2)C(=O)N[C@H](C(=O)N[C@@H](CCC(N)=O)C(=O)N[C@@H](CCCNC(=N)N)C(=O)N[C@H](C(=O)N[C@@H](CCSC)C(N)=O)C(C)C)C(C)C)NC(=O)[C@H](CC(=O)O)NC(=O)[C@H](CC(C)C)NC1=O", "note": "(Ac-ENPE[dDap]ILD[dDap]HVQRVM-NH2; linker 5-9 via X3)", "helicity": 25},
      {"smiles": "CC[C@H](C)[C@@H]1NC(=O)[C@H](NC(=O)[C@H](CCC(=O)O)NC(=O)[C@@H]2CCCN2C(=O)[C@H](CC(N)=O)NC(=O)[C@H](CCC(=O)O)NC(C)=O)CNC(=O)CSCCCCCSCC(=O)NC[C@H](C(=O)N[C@@H](Cc2c[nH]cn2)C(=O)N[C@H](C(=O)N[C@@H](CCC(N)=O)C(=O)N[C@@H](CCCNC(=N)N)C(=O)N[C@H](C(=O)N[C@@H](CCSC)C(N)=O)C(C)C)C(C)C)NC(=O)[C@H](CC(=O)O)NC(=O)[C@H](CC(C)C)NC1=O", "note": "(Ac-ENPE[dDap]ILD[dDap]HVQRVM-NH2; linker 5-9 via X4)", "helicity": 14}
    ]}
  ]
}
